# Experimental data reported in US20200325237A1 (AVIDITY BIOSCIENCES, published 2020).
# Values joined by “and” are separate entries in the source; they are usually repeats but may differ in a detail not shown here. Identical values can stand only once.
# B1: 13E4_WT (parent chimeric anti-TfR antibody) (antibody, V domains shown)
# VH: QVQLQQPGAELVKPGASVKLSCKASGYTFTNYWMHWVKQRPGQGLEWIGEINPINGRSNYGERFKTKATLTVDKSSSTAYMQLSSLTSEDSAVYYCARGTRAMHYWGQGTSVTVSS
# VL: DIQMTQSPASLSVSVGETVTITCRTSENIYNNLAWYQQKQGKSPQLLVYAATNLADGVPSRFSGSGSGTQYSLKINSLQSEDFGNYYCQHFWGTPLTFGAGTKLELK
# notes: also called 13E4_WT 1st; 13E4_WT 2nd
# Experiments:
# [1] = target: T1, hTfR (human transferrin receptor, source and construct not stated) (human, UniProt P02786 89-760, limits assumed); experiment: SPR (BioRad ProteOn XPR36), mAb captured on Protein A, hTfR as analyte, 25 C; 13E4_WT 2nd run
# T1 sequence (P02786 89-760 limits assumed): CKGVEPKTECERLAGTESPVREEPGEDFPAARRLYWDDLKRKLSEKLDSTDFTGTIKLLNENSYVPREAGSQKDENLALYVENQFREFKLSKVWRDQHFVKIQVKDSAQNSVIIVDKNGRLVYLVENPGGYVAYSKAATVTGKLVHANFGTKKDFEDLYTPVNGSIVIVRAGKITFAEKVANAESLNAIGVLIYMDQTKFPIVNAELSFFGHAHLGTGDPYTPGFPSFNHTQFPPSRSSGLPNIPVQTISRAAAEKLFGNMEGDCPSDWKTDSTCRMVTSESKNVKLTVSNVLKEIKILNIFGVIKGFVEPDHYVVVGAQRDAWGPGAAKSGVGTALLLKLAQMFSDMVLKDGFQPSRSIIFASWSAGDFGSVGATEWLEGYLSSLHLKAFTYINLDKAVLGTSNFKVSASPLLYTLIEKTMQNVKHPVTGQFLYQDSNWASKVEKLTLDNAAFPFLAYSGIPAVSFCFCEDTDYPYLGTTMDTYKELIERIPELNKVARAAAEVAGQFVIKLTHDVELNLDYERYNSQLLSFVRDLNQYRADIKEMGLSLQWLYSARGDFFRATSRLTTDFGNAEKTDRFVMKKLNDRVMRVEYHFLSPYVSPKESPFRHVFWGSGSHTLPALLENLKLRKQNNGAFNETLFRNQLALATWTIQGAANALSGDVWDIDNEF
# Description: The binding kinetics of nine exemplary humanized anti-TfR antibodies and the parent chimeric antibody were characterized. Studies were run on a BioRad ProteOn XPR36 optical biosensor using a GLM sensor chip coated with Protein A for mAb capture. Running buffer included 10 mM EPES, 150 mM NaCl, pH 7.4 with 0.05 tween-20 with 0.2 mg/ml BSA. Data were collected at 25 degrees C. All mAbs were diluted into running buffer to 2 ug/ml based on the stock concentration provided. Each was then captured for 40 seconds over a Protein A surface.
# hTfR (100 ug) was dissolved into […] of water to yield a 4.3 uM stock concentration. hTfR was dilted to 43 nM as the highest concentration and tested in a 3 fold dilution series. hTfR was injected at 200 ul/min for 2 minutes followed by a one-hour dissociation phase.
# [2] = target: T1, hTfR (human transferrin receptor, …); experiment: ELISA, biotinylated antibody on hTfR captured by plate-coated human holo-transferrin (Tf+TfR); fit: specific binding with Hill slope
# Summary of the method: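 Human holo-transferrin coated at 500 ng/mL (4 °C overnight) captured hTfR (200 ng/mL, 30 min); comparison plates carried directly coated hTfR. Biotinylated antibodies, 3-fold series from 20 nM (pre-addition), bound 1 h; streptavidin-HRP/TMB, A450 minus A570. Kd from specific binding with Hill slope; shift judged against reference antibody AF2474 with transferrin-overlapping epitope.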
# [3] = target: T1, hTfR (human transferrin receptor, …); experiment: ELISA, biotinylated antibody on hTfR captured by plate-coated HFE (HFE+TfR); fit: specific binding with Hill slope
# [4] = target: T1, hTfR (human transferrin receptor, …); experiment: ELISA; ratio of the Kd on HFE-captured hTfR to the Kd on directly coated hTfR
# [5] = target: T2, recombinant human transferrin receptor protein (Sino Biological 11020-H07H) (human, UniProt P02786 89-760); experiment: ELISA on plate-coated recombinant human TfR1 (CD71); fit: specific binding with Hill slope
# T2 construct: Bought protein coated on ELISA plates; also called recombinant human TfR1; human TfR1
# T2 sequence (P02786 89-760 limits assumed): as above
# Description: Half-well high-binding 96-well plates (Costar #3690) were coated with recombinant human transferrin receptor protein (Sino Biological 11020-H07H) or recombinant cyno transferrin receptor protein (Sino Biological 90253-C07H) at 1 ng/μL in PBS (Gibco 14190) and incubated overnight at 4° C. Plates were washed four times with 100 μL of Tris buffered saline+Tween (20×TBST, Cell Signaling 9997S). 100 μL of Superblock (ThermoFisher PI-37535) was added to each well and incubated for 1 hour at room temperature. The wash step was repeated before the addition of the samples. Samples were added at concentrations up to 10 nM, 50 μL/well. Plates were incubated for another hour at room temp and wash step repeated. Secondary antibody (Peroxidase AffiniPure Goat Anti-Human IgG, Fcγ Fragment Specific, Jackson Immunoresearch, 109-035-098) was diluted 1:5000 in Superblock and 50 μL/well added. Plates were incubated for 1 hour at room temperature and washed one more time. Binding was measured by the addition of 50 μL of 1-Step™ Ultra TMB-ELISA (ThermoFisher, 34028), incubated for 5 minutes, and the reaction was stopped with the addition of 25 μL of Stop Solution 2N sulfuric Acid (R&D Systems DY994). Absorbance was measured at 450 nm, with reference wavelength 570 nm subtracted. Binding constants were determined using GraphPad Prism Specific Binding with Hill Slope.
# [6] = target: T1, hTfR (human transferrin receptor, …); experiment: SPR (BioRad ProteOn XPR36), mAb captured on Protein A, hTfR as analyte, 25 C
# Summary of the method: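 Antibodies at 2 ug/ml were captured on a Protein A GLM chip for 40 s. hTfR was injected as analyte from 43 nM in a 3-fold series, 2 min association and 1 h dissociation. Run at 25 degrees C in HEPES/150 mM NaCl pH 7.4 with tween-20 and 0.2 mg/ml BSA.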
# [7] = target: T3, recombinant cyno transferrin receptor protein (Sino Biological 90253-C07H) (cyno, UniProt H9EXL1 89-760 (rhesus entry)); experiment: ELISA on plate-coated recombinant cyno TfR1 (CD71); fit: specific binding with Hill slope
# T3 construct: Bought protein coated on ELISA plates; also called recombinant cyno TfR1; cynoTfR1
# T3 sequence (chain, as listed by the source C07H C07H): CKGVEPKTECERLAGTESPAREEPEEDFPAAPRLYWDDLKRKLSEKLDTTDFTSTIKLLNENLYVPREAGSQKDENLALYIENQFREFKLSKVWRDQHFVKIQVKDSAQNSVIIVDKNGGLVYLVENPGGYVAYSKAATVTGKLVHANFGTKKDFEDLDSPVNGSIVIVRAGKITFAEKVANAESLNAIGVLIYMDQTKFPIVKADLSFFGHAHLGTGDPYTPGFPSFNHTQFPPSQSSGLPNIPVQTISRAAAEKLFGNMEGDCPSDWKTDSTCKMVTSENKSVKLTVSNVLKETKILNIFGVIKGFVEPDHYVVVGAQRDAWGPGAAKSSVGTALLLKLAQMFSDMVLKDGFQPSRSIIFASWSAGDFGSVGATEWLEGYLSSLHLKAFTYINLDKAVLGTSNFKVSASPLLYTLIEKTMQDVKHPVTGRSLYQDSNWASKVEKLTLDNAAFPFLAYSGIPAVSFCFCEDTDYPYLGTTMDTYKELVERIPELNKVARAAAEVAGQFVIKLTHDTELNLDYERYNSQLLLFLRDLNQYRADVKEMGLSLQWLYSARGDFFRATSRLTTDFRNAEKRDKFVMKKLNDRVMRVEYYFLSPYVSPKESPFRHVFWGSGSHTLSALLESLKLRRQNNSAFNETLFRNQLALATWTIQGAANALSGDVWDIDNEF
# Summary of the method: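 Plates coated overnight at 4° C with recombinant human or cyno TfR1 (1 ng/μL), blocked, then incubated with samples up to 10 nM for 1 h at room temperature. Bound IgG detected with HRP anti-human Fcγ and TMB (A450 minus A570); Bmax, h and Kd from specific-binding-with-Hill-slope fit.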
binder,measurement,setting,value
B1,koff,[1],1.5e-06 s⁻¹
same,Bmax,[2],3.45 A450
same,Kd,[2],0.0518 nM
same,h,[2],1.57
same,Bmax,[3],2.88 A450
same,Kd,[3],0.286 nM
same,h,[3],1.54
same,Kd(HFE+TfR)/Kd(TfR),[4],16.9
same,Bmax,[5],98.3 % max binding
same,Kd,[5],0.0062 nM
same,h,[5],1.18
same,kon,[6],1.06e+06 M⁻¹ s⁻¹ and 903000 M⁻¹ s⁻¹ and 840000 M⁻¹ s⁻¹
same,Bmax,[7],99.1 % max binding
same,Kd,[7],0.00582 nM
same,h,[7],1.34
